{
  "source": "paper PMC2935290",
  "target": "HLA-DPB1*0101 (human (endogenous in VAVY))",
  "assay": "radioligand binding",
  "data": [
    {"substance": "… A7W (peptide)", "values": [
      {"measurement": "other", "value": 3.1}
    ]}
  ]
}
